The source of these data is patent US20190040375A1.

Assay [1] addresses gliadin-subtilisin A digest (mixed gliadins, 250 ug/ml, incubated with subtilisin A, 57 ug/ml). Nature of the assay: G12 sandwich ELISA; gliadins 250 ug/ml with subtilisin A 57 ug/ml, 2 h.
Assay [2] addresses gliadin-Rmep digest (mixed gliadins, 250 ug/ml, incubated with Rmep, 57 ug/ml). As to the kind of experiment: G12 sandwich ELISA; gliadins 250 ug/ml with Rmep 57 ug/ml, 2 h. On the technique in general: An ELISA detects its analyte on a solid surface through an enzyme-linked reagent.
Assay [3] has the same target. As to the kind of experiment: G12 sandwich ELISA; gliadins 250 ug/ml with Rmep 57 ug/ml, 30 min.
Assay [4] addresses gliadin-subtilisin A digest (mixed gliadins, 250 ug/ml, incubated with subtilisin A, 57 ug/ml). As to the kind of experiment: G12 sandwich ELISA; gliadins 250 ug/ml with subtilisin A 57 ug/ml, t=0 sample.
For assay [5], the target named is gliadin-Rmep digest (mixed gliadins, 250 ug/ml, incubated with Rmep, 57 ug/ml). As to the kind of experiment: R5 sandwich ELISA; gliadins 250 ug/ml with Rmep 57 ug/ml, t=0 sample.
Assay [6] concerns the target gliadin-subtilisin A digest (mixed gliadins, 250 ug/ml, incubated with subtilisin A, 57 ug/ml). Nature of the assay: R5 sandwich ELISA; gliadins 250 ug/ml with subtilisin A 57 ug/ml, 15 min.
Assay [7] shares this target. Nature of the assay: R5 sandwich ELISA; gliadins 250 ug/ml with subtilisin A 57 ug/ml, t=0 sample.

Turning to “G12 monoclonal antibody (AgraQuant ELISA Gluten G12, Romer labs)”, the degradation of G12 epitopes (ELISA) in assay [1] is 45%; in assay [4] it was 22%. Moreover, the decrease in antibody binding in assay [2] was determined as 85%; in assay [3], 65%.

On to “R5 monoclonal antibody (… Gliadin, R-Biopharm)”, for which the reduction in antibody binding compared to the control in assay [5] was found to be 46%. In addition, the elimination of R5 epitopes (ELISA) in assay [6] worked out at 100%; in assay [7], 90%.
